In this data set the test system is MS2 coat protein. Briefly: apparent KD of MS2 coat protein; designed switch direction (-1 OFF switch, 1 ON switch): 1; higher = weaker reporter binding. An outline of the steps:
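On Illumina chips, designed RNA switches with common flanks were made by stalled E. coli RNA polymerase. Titrations with SNAP-549-labelled MS2 coat protein, doubling from 0.7 or 1.5 nM to 3 µM, were done with no input, with 200 uM small-molecule ligand, or with an oligonucleotide input. Apparent KD is the median per design over clusters, from curve fits of normalised cluster fluorescence.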

Setting [1] is: Eterna round: R95, input ligand: FMN 200 uM.
[2] abbreviates: Eterna round: R95, input ligand: microRNA oligo, concentration not stated.
Setting [3] is: Eterna round: R95, input ligand: none.
Setting [4] is: input ligand: microRNA oligo, concentration not stated.

Take “GUAAAACAUGAGGAUCACCCAUGUAAUAAUAUGGGAGGAUAUCAGAAUGUAUGUAUGUAAUGAGAAGGCCUAAAUG [Mat - Same State 1 - Mod of Eli - D74] (puzzle: Same State 1)”: the “apparent KD of MS2 coat protein” value is, setting by setting: under setting [1], 101 nM; under setting [2], 1610 nM; under setting [3], 1120 nM.

For “GCUAGAAUAAAAGCCAACAUGAGGAUCACCCAUGUAUGUUGGCAGGAUAUCGUAUGCAAAGCAUACGAGAAGGGCCAUACUAGC [Mat - Same State NG 3 - JL Mod - D24] (Eterna round: R96, puzzle: Same State NG 3)”, the “apparent KD of MS2 coat protein” value was found to be 49.8 nM (input ligand: FMN 200 uM), 96.7 nM under setting [4] and 121 nM (input ligand: none).

Take “CUGAGCAAGCAAGGAUAUCACGUCGUUUAGACGUGAGAAGGUGCUCCUUACAUGAGGAUCACCCAUGUAUAACAUGAAGCUCAG [SSNG1/10-A3] (Eterna round: R96, puzzle: Same State NG 1)”: the “apparent KD of MS2 coat protein” value by setting is: (input ligand: FMN 200 uM) 150 nM; under setting [4], 273 nM; (input ligand: none) 870 nM.

Regarding “GUAGCAUACCGAGGAUAUUCAUAUUAACAUGAGGAUCACCCAUGUUUUUAGGCCAAAAGGCCUUGGGAGAAGGCGGAAUGCUAC [Xeonanis - 20 Mod6] (Eterna round: R96, puzzle: Same State NG 2)”, the “apparent KD of MS2 coat protein” value (input ligand: FMN 200 uM) worked out at 11.4 nM, the “apparent KD of MS2 coat protein” value under setting [4] came out at 12.8 nM and the “apparent KD of MS2 coat protein” value (input ligand: none) is 16.1 nM.

For “UUGUUUUGUAAUUAACAUGAGGAUCACCCAUGUCUUGGCUCAGAGGAUAUACAUGUUUGAUUGUAGUAGAAGGCUGAAUGUUGU [JR_SSNG3_Sub094] (Eterna round: R96, puzzle: Same State NG 3)”, the “apparent KD of MS2 coat protein” value came out at 95.2 nM (input ligand: FMN 200 uM), 96 nM under setting [4] and 131 nM (input ligand: none).

For “GGAGCCGGUACUGAGGAUAUUCAUUUUAAAACAUGAGGAUCACCCAUGUAGGCCAGAAGGCCUUGGGAGAAGGCAGACCAGCUCG [Atgexeedri - 6] (puzzle: Same State 2)”, the “apparent KD of MS2 coat protein” value amounted to 20.9 nM under setting [1], 217 nM under setting [2] and 369 nM under setting [3].

In the case of “UUAGAAUUGCAAGGAUAUCUUAUUUAGAUAGUAAGAGAAGGUGCUUUAUAGUUACAUGAGGAUCACCCAUGUAUUUCUUUUUAU [JR_SSNG1_Sub061] (Eterna round: R96, puzzle: Same State NG 1)”, under setting [4], the “apparent KD of MS2 coat protein” value amounted to 16.6 nM.

For the sequence “GUGGUCAGACAUGAGGAUCACCCAUGUGGAAUAAAUAAGGUUUAGGAUAUGGAAUAUAGGAUAUACCAGAAGGAAAGGUUGGUG (Eterna round: R96, puzzle: Same State NG 3)”, the “apparent KD of MS2 coat protein” value is 176 nM (input ligand: FMN 200 uM), 75.4 nM under setting [4] and 133 nM (input ligand: none).

Regarding “GCCGGCUAAUGAGGAUAUGGCACCUUAUUGGUGCCAGAAGGCAUGUCAAUUGACAUGAGGAUCACCCAUGUAUUAUAGUUGGCG [salish99_SSNG1_r04_603] (Eterna round: R96, puzzle: Same State NG 1)”, the “apparent KD of MS2 coat protein” value under setting [4] was 211 nM.

“AGGUAACAUGAGGAUCACCCAUGUAAGGUGAACGUAGGAUAUCGAAGAGGUAGGGUAGGACGAGAAGGACGAGGAA [JR_SS1_Sub092] (puzzle: Same State 1)”: the “apparent KD of MS2 coat protein” value runs as follows: under setting [1], 347 nM; under setting [2], 346 nM; under setting [3], 481 nM.

In the case of “GAGUGGAGGAGAGGAUAUACAUUGAUAAUCACUGUAGAAGGUUCUAACAUGAGGAUCACCCAUGUAGGACUAUUCCUGAGAGUU [Parity 52 - Jieux - Same State NG 1] (Eterna round: R96, puzzle: Same State NG 1)”, the “apparent KD of MS2 coat protein” value (input ligand: FMN 200 uM) worked out at 8.87 nM, the “apparent KD of MS2 coat protein” value under setting [4] is 10.1 nM and the “apparent KD of MS2 coat protein” value (input ligand: none) was found to be 12.5 nM.

On to “CCGCAUUCAGCAGGAUAUCUCAACCGGAAGAUGAGAGAAGGGUUGAUUACAUGAGGAUCACCCAUGUCCAAGCAUGCGAGAGCC [Eternabot solution 23] (Eterna round: R96, puzzle: Same State NG 1)”, for which the “apparent KD of MS2 coat protein” value by setting is: (input ligand: FMN 200 uM) 500 nM; under setting [4], 754 nM; (input ligand: none) 188 nM.

Take “ACAUGAGAGUGAGGAUAUGGUGUACCUACAUGUGACAUGAGGAUCACCCAUGUGGUAAGUAUGACUCAGAAGGCACAGAUAUGU [Equivalance 77 - Jieux - Same State NG 2] (Eterna round: R96, puzzle: Same State NG 2)”: the “apparent KD of MS2 coat protein” value turned out to be 16.2 nM (input ligand: FMN 200 uM), 59.4 nM under setting [4] and 103 nM (input ligand: none).

As for “AAACGGCCGAACGGAGGACCACAUGAGGAUCACCCAUGUACAUAGGAUAUCAUGCCAACGAGGCAUGAGAAGGGUGAUUAAAAC [Ribigeso] (Eterna round: R96, puzzle: Same State NG 3)”, the “apparent KD of MS2 coat protein” value by setting is: (input ligand: FMN 200 uM) 126 nM; under setting [4], 27.6 nM; (input ligand: none) 32 nM.

“UAUAAACAUGAGGAUCACCCAUGUAAUAAUAUGGGAGGAUAUCAGAAUGUAUUUAUGUAAUGAGAAGGCCUAAUAU [Mat - Same State 1 - Mod of Eli - D69] (puzzle: Same State 1)”: the “apparent KD of MS2 coat protein” value is 50.9 nM under setting [1], 122 nM under setting [2] and 372 nM under setting [3].

As for “UUAACAUGACGAGGAUAUCAUUUAUAUCUUGAUUGAGAAGGCGUUCUUUUUUUUACCUAACAUGAGGAUCACCCAUGUGACAGU [JR_SSNG1_Sub051] (Eterna round: R96, puzzle: Same State NG 1)”, the “apparent KD of MS2 coat protein” value is 12.4 nM (input ligand: FMN 200 uM), 13.7 nM under setting [4] and 17.6 nM (input ligand: none).

Regarding “ACAUGAGGAUCACCCAUGUAACCAAGAGAGAGAGCACGGACGCAGGAUAUGCGGCGACGAGCGGAGCAGAAGGGCGCCUCAUAU [Alacarus NG 3 Attempt 1] (Eterna round: R96, puzzle: Same State NG 3)”, the “apparent KD of MS2 coat protein” value reads like this: (input ligand: FMN 200 uM) 79.3 nM; under setting [4], 52 nM; (input ligand: none) 109 nM.

Turning to “UUAGUCAUGUAAGGAUAUGCAGCCGAAACGGCUGCAGAAGGUACUAUAAUUACAUGAGGAUCACCCAUGUUAUAAAAUUUAUAU [Mat - Same State NG 1 - JL mod - D62] (Eterna round: R96, puzzle: Same State NG 1)”, the “apparent KD of MS2 coat protein” value was found to be 23.4 nM (input ligand: FMN 200 uM), 28.7 nM under setting [4] and 41.2 nM (input ligand: none).

As for “GCUCGUAUGAUGACCGACAUGAGGAUCACCCAUGUAUGUUGGUAGGAUAUCUAUAUUAAGGAUAUAGAGAAGGGCCGAACGAGC [SameState NG3 #15] (Eterna round: R96, puzzle: Same State NG 3)”, the “apparent KD of MS2 coat protein” value stood at 26.5 nM (input ligand: FMN 200 uM), 33.6 nM under setting [4] and 40.1 nM (input ligand: none).

Regarding “UAAAAACAUGAGGAUCACCCAUGUCAAAAGACAUGAGGAUAUGUACAGACUUCGGUCUGUACAGAAGGCAUGAAAA [salish99_ss1_r3_094] (puzzle: Same State 1)”, the “apparent KD of MS2 coat protein” value is, setting by setting: under setting [1], 33.3 nM; under setting [2], 503 nM; under setting [3], 362 nM.

The record behind these values is the supplement of paper PMC9170038.
